Test results reported in PMC5448812, “Distinct DNA-binding surfaces in the ATPase and linker domains of MutLγ determine its substrate specificities and exert separable functions in meiotic recombination and mismatch repair” (PLoS Genetics, 2017).

Substrate: Nc1ncnc2c1ncn2[C@@H]1O[C@H](COP(=O)(O)OP(=O)(O)OP(=O)(O)O)[C@@H](O)[C@H]1O
Assay: ATP hydrolysis, thin layer chromatography of [α-32P]-ADP
Assay type: biochemical, Saccharomyces cerevisiae
Details: 200 nM MutLγ, 25 mM Tris-HCl pH 7.5, 5 mM MgCl2, 1 mg/ml BSA, 30°C, no DNA, labelled compound as tracer (33 nM [α-32P]-ATP plus cold ATP), both subunits carry a GHKL ATPase domain, single apparent Km

B1: MutLγ (Mlh1-Mlh3) (Saccharomyces cerevisiae S288C) (protein)
chain 1: MSLRIKALDASVVNKIAAGEIIISPVNALKEMMENSIDANATMIDILVKEGGIKVLQITDNGSGINKADLPILCERFTTSKLQKFEDLSQIQTYGFRGEALASISHVARVTVTTKVKEDRCAWRVSYAEGKMLESPKPVAGKDGTTILVEDLFFNIPSRLRALRSHNDEYSKILDVVGRYAIHSKDIGFSCKKFGDSNYSLSVKPSYTVQDRIRTVFNKSVASNLITFHISKVEDLNLESVDGKVCNLNFISKKSISPIFFINNRLVTCDLLRRALNSVYSNYLPKGNRPFIYLGIVIDPAAVDVNVHPTKREVRFLSQDEIIEKIANQLHAELSAIDTSRTFKASSISTNKPESLIPFNDTIESDRNRKSLRQAQVVENSYTTANSQLRKAKRQENKLVRIDASQAKITSFLSSSQQFNFEGSSTKRQLSEPKVTNVSHSQEAEKLTLNESEQPRDANTINDNDLKDQPKKKQKLGDYKVPSIADDEKNALPISKDGYIRVPKERVNVNLTSIKKLREKVDDSIHRELTDIFANLNYVGVVDEERRLAAIQHDLKLFLIDYGSVCYELFYQIGLTDFANFGKINLQSTNVSDDIVLYNLLSEFDELNDDASKEKIISKIWDMSSMLNEYYSIELVNDGLDNDLKSVKLKSLPLLLKGYIPSLVKLPFFIYRLGKEVDWEDEQECLDGILREIALLYIPDMVPKVDTSDASLSEDEKAQFINRKEHISSLLEHVLFPCIKRRFLAPRHILKDVVEIANLPDLYKVFERC
chain 2: MSQHIRKLDSDVSERLKSQACTVSLASAVREIVQNSVDAHATTIDVMIDLPNLSFAVYDDGIGLTRSDLNILATQNYTSKIRKMNDLVTMKTYGYRGDALYSISNVSNLFVCSKKKDYNSAWMRKFPSKSVMLSENTILPIDPFWKICPWSRTKSGTVVIVEDMLYNLPVRRRILKEEPPFKTFNTIKADMLQILVMHPMISLNVQYTDKLRINTEVLFRSKNITEGLTKHQQMSQVLRNVFGAIIPPDMLKKVSLKFNEYQIEGIISKMPVGLKDLQFIYINGRRYADSAFQGYVDSLFQAQDFGEKGMSLLKTKSVGKPYRSHPVFILDVRCPQTIDDLLQDPAKKIVKPSHIRTIEPLIVKTIRSFLTFQGYLTPDKSDSSFEIVNCSQKTATLPDSRIQISKRNQVLNSKMKIARINSYIGKPAVNGCRINNSTINYEKIKNIRIDGQKSRLRNKLSSRPYDSGFTEDYDSIGKTITDFSISRSVLAKYEVINQVDKKFILIRCLDQSIHNCPLLVLVDQHACDERIRLEELFYSLLTEVVTGTFVARDLKDCCIEVDRTEADLFKHYQSEFKKWGIGYETIEGTMETSLLEIKTLPEMLTSKYNGDKDYLKMVLLQHAHDLKDFKKLPMDLSHFENYTSVDKLYWWKYSSCVPTVFHEILNSKACRSAVMFGDELTRQECIILISKLSRCHNPFECAHGRPSMVPIAELK
notes: full-length heterodimer (175 kDa), N-terminal 6xHis-2xFlag tag kept on Mlh1 (Mlh3 untagged), co-expressed from baculoviruses in Sf9 cells
B1 gave a Km of 64 ± 13 µM.
